Legend:
[1] = molecular target: recombinant ZnF0 of BCL11A; test: dynamic light scattering
[2] = molecular target: recombinant ZnF0 of BCL11A; test: AUC
[3] = molecular target: recombinant ZnF0 of BCL11A; test: native gel or EMSA
[4] = molecular target: recombinant ZnF0 of BCL11A; test: crystal structure
native gel or EMSA = molecular target: the molecule itself; test: native gel or EMSA

stoichiometry N [1] | stoichiometry N [2] | stoichiometry N [3] | stoichiometry N [4] | Molecule | binding result (native gel or EMSA)
4 | 4 | 4 | 4 | recombinant ZnF0 of BCL11A (domain or fragment) | –
– | – | – | – | full-length (FL) BCL11A, recombinant (natural protein, UniProt Q9H165-1 1-835, looked up) MSRRKQGKPQHLSKREFSPEPLEAILTDDEPDHGPLGAPEGDHDLLTCGQCQMNFPLGDILIFIEHKRKQCNGSLCLEKAVDKPPSPSPIEMKKASNPVEVGIQVTPEDDDCLSTSSRGICPKQEHIADKLLHWRGLSSPRSAHGALIPTPGMSAEYAPQGICKDEPSSYTCTTCKQPFTSAWFLLQHAQNTHGLRIYLESEHGSPLTPRVGIPSGLGAECPSQPPLHGIHIADNNPFNLLRIPGSVSREASGLAEGRFPPTPPLFSPPPRHHLDPHRIERLGAEEMALATHHPSAFDRVLRLNPMAMEPPAMDFSRRLRELAGNTSSPPLSPGRPSPMQRLLQPFQPGSKPPFLATPPLPPLQSAPPPSQPPVKSKSCEFCGKTFKFQSNLVVHRRSHTGEKPYKCNLCDHACTQASKLKRHMKTHMHKSSPMTVKSDDGLSTASSPEPGTSDLVGSASSALKSVVAKFKSENDPNLIPENGDEEEEEDDEEEEEEEEEEEEELTESERVDYGFGLSLEAARHHENSSRGAVVGVGDESRALPDVMQGMVLSSMQHFSEAFHQVLGEKHKRGHLAEAEGHRDTCDEDSVAGESDRIDDGTVNGRGCSPGESASGGLSKKLLLGSPSSLSPFSKRIKLEKEFDLPPAAMPNTENVYSQWLAGYAASRQLKDPFLSFGDSRQSPFASSSEHSSENGSLRFSTPPGELDGGISGRSGTGSGGSTPHISGPGPGRPSSKEGRRSDTCEYCGKVFKNCSNLTVHRRSHTGERPYKCELCNYACAQSSKLTRHMKTHGQVGKDVYKCEICKMPFSVYSTLEKHMKKWHSDRVLNNDIKTE | binds
